Drawing on patent US20080159989A1, this text covers % of beating EB (Cripto-/- ES cells transfected with Cerberus, EBs treated with recombinant Cripto) (% of beating EB) and % of beating EB (Cripto-/- ES cells transfected with Cerberus-S, EBs treated with recombinant Cripto) (% of beating EB) for two substances.

The target of the experiment is Nodal (mouse) (UniProt P43021).

As to Cerberus, the % of beating EB (Cripto-/- ES cells transfected with Cerberus, EBs treated with recombinant Cripto) (% of beating EB) was 10.3.

Turning to Cerberus-Short (CerS), the % of beating EB (Cripto-/- ES cells transfected with Cerberus-S, EBs treated with recombinant Cripto) (% of beating EB) came out at 8.3.
